Results taken from publication PMC8998743, “Dimerization Activity of a Disordered N-Terminal Domain from Drosophila CLAMP Protein” (International Journal of Molecular Sciences, 2022).

Tests used:
[1] = target: the molecule itself; assay: cross-linking; thioredoxin-tagged proteins at 5 μM, increasing concentrations of glutaraldehyde, 10 min at room temperature, 20 mM HEPES pH 7.7, 150 mM NaCl, 20 mM imidazole, 1 mM β-mercaptoethanol; SDS-PAGE, silver staining
[2] = target: the molecule itself; assay: SEC; Superdex S200 size-exclusion chromatography of purified CLAMP derivatives
[3] = target: the molecule itself; assay: SAXS; in solution, BM29 BioSAXS beamline (ESRF); molecular weight from extrapolated I0; CLAMP 1-153 at 2.3 mg/mL, CLAMP 1-113 at 1.0 and 7.0 mg/mL, CLAMP 87-153 at 2.5 and 10.0 mg/mL

Row | Protein | stoichiometry N [3] | also measured
1 | thioredoxin-tagged CLAMP^1–127 (domain or fragment, D. melanogaster, UniProt Q9V9N4 1-127, looked up, Used in glutaraldehyde cross-linking with the thioredoxin tag on; source: E. coli BL21(DE3), purified) MEDLTKNIIFTNAINGQPATIQYQTADGTILKQPKIEGQKTEQQPTFYYTTNGNGGTVNLAQLATTDDNKTCYIAQPVGGYNYALVNGMPLNQGAALGIATVDAQGRIQIVNQNKPIAANTISNISF |  | binding result [1]: binds
2 | CLAMP^1–127 (purified, tag cleaved) (domain or fragment, D. melanogaster, UniProt Q9V9N4 1-127, looked up, source: E. coli BL21(DE3), purified (Ni-NTA, TEV cleavage, SOURCE15Q)) MEDLTKNIIFTNAINGQPATIQYQTADGTILKQPKIEGQKTEQQPTFYYTTNGNGGTVNLAQLATTDDNKTCYIAQPVGGYNYALVNGMPLNQGAALGIATVDAQGRIQIVNQNKPIAANTISNISF |  | binding result [2]: binds
3 | CLAMP^1–153 (purified, tag cleaved) (domain or fragment, D. melanogaster, UniProt Q9V9N4 1-153, looked up, source: E. coli BL21(DE3), purified (Ni-NTA, TEV cleavage, SOURCE15Q)) MEDLTKNIIFTNAINGQPATIQYQTADGTILKQPKIEGQKTEQQPTFYYTTNGNGGTVNLAQLATTDDNKTCYIAQPVGGYNYALVNGMPLNQGAALGIATVDAQGRIQIVNQNKPIAANTISNISFKCDVCSDMFPHLALLNAHKRMHTDGE | 2 | 
4 | CLAMP^1–113 (purified, tag cleaved) (domain or fragment, D. melanogaster, UniProt Q9V9N4 1-113, looked up, source: E. coli BL21(DE3), purified (Ni-NTA, TEV cleavage, SOURCE15Q)) MEDLTKNIIFTNAINGQPATIQYQTADGTILKQPKIEGQKTEQQPTFYYTTNGNGGTVNLAQLATTDDNKTCYIAQPVGGYNYALVNGMPLNQGAALGIATVDAQGRIQIVNQ | 2 | 
